Experimental data taken from patent US20210147507A1, “METHODS TO AUGMENT OR ALTER SIGNAL TRANSDUCTION” (Bellicum Pharmaceuticals, Inc., priority 2017, published 2021).

Columns and labels:
[1] = target: wt FRB (K2095 T2098 W2101) (Homo sapiens, UniProt P42345+P62942); details: cited from earlier work
FRB-KTF = FRB-KTF (Homo sapiens, UniProt P42345+P62942, W2101F); details: cited from earlier work
FRB-PLF = FRB-PLF (Homo sapiens, UniProt P42345+P62942, K2095P/T2098L/W2101F); details: cited from earlier work
[2] = test system: chimeric Caspase-9 polypeptide; assay: Caspase-9 mutant classes and basal activity (Table 5); format: cell-based; details: Caspase-9 mutant class; for Basal Activity: basal (ligand-independent) signaling compared with unmodified chimeric Caspase-9
chimeric Caspase-9 polypeptide, sequence (P62942 2-108 F37V limits assumed): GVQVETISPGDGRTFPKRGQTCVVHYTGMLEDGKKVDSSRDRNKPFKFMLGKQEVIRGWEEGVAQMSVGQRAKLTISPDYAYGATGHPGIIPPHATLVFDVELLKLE

wt FRB (K2095 T2098 W2101), sequence (P42345 2012-2144 limits assumed): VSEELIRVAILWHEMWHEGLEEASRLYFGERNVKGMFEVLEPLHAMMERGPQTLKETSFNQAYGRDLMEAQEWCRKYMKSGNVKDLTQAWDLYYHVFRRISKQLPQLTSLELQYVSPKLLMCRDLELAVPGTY
wt FRB (K2095 T2098 W2101), sequence (P62942 2-108 limits assumed): as the sequence (P62942 2-108 F37V limits assumed) above, with V36F counted along it
FRB-PLF, sequence (P42345 2012-2144 K2095P/T2098L/W2101F limits assumed): as the sequence (P42345 2012-2144 limits assumed) above, with K84P, T87L, W90F counted along it
FRB-PLF, sequence (P62942 2-108 limits assumed): as the sequence (P62942 2-108 F37V limits assumed) above, with V36F counted along it
FRB-KTF, sequence (P42345 2012-2144 W2101F): as the sequence (P42345 2012-2144 limits assumed) above, with W90F counted along it
FRB-KTF, sequence (P62942 2-108): as the sequence (P62942 2-108 F37V limits assumed) above, with V36F counted along it

Molecule	Catalytic activity (class 'Catalytically dead') [2]	Basal Activity [2]	other results
S-Butanesulfonamidorap [AP23050]			EC50 [1]: ~2.7 nM; EC50 (FRB-KTF): > 200 nM
CO[C@@H]1C[C@H](C[C@@H](C)[C@@H]2CC(=O)[C@H](C)/C=C(\C)[C@@H](O)[C@@H](OC)C(=O)[C@H](C)C[C@H](C)/C=C/C=C/C=C(\C)[C@H](OC(C)C)C[C@@H]3CC[C@@H](C)[C@@](O)(O3)C(=O)C(=O)N3CCCC[C@H]3C(=O)O2)CC[C@H]1O [R-Isopropoxyrapamycin]			EC50 [1]: ~300 nM; EC50 (FRB-PLF): ~8.5 nM
G402A (protein) GFGDVGALESLRGNADLAYILSMEPCGHCLIINNVNFCRESGLRTRTGSNIDCEKLRRRFSSLHFMVEVKGDLTAKKMVLALLELARQDHGALDCCVVVILSHGCQASHLQFPGAVYGTDGCPVSVEKIVNIFNGTSCPSLGGKPKLFFIQACGGEQKDHGFEVASTSPEDESPGSNPEPDATPFQEGLRTFDQLDAISSLPTPSDIFVSYSTFPGFVSWRDPKSGSWYVETLDDIFEQWAHSEDLQSLLLRVANAVSVKGIYKQMPACFNFLRKKLFFKTSASRA	dead		
T317S (protein) GFGDVGALESLRGNADLAYILSMEPCGHCLIINNVNFCRESGLRTRTGSNIDCEKLRRRFSSLHFMVEVKGDLTAKKMVLALLELARQDHGALDCCVVVILSHGCQASHLQFPGAVYGTDGCPVSVEKIVNIFNGTSCPSLGGKPKLFFIQACGGEQKDHGFEVASTSPEDESPGSNPEPDASPFQEGLRTFDQLDAISSLPTPSDIFVSYSTFPGFVSWRDPKSGSWYVETLDDIFEQWAHSEDLQSLLLRVANAVSVKGIYKQMPGCFNFLRKKLFFKTSASRA		Decreased	
S144D (protein) GFGDVGALEDLRGNADLAYILSMEPCGHCLIINNVNFCRESGLRTRTGSNIDCEKLRRRFSSLHFMVEVKGDLTAKKMVLALLELARQDHGALDCCVVVILSHGCQASHLQFPGAVYGTDGCPVSVEKIVNIFNGTSCPSLGGKPKLFFIQACGGEQKDHGFEVASTSPEDESPGSNPEPDATPFQEGLRTFDQLDAISSLPTPSDIFVSYSTFPGFVSWRDPKSGSWYVETLDDIFEQWAHSEDLQSLLLRVANAVSVKGIYKQMPGCFNFLRKKLFFKTSASRA		Decreased	
G402Y (protein) GFGDVGALESLRGNADLAYILSMEPCGHCLIINNVNFCRESGLRTRTGSNIDCEKLRRRFSSLHFMVEVKGDLTAKKMVLALLELARQDHGALDCCVVVILSHGCQASHLQFPGAVYGTDGCPVSVEKIVNIFNGTSCPSLGGKPKLFFIQACGGEQKDHGFEVASTSPEDESPGSNPEPDATPFQEGLRTFDQLDAISSLPTPSDIFVSYSTFPGFVSWRDPKSGSWYVETLDDIFEQWAHSEDLQSLLLRVANAVSVKGIYKQMPYCFNFLRKKLFFKTSASRA	dead		
G402Q (protein) GFGDVGALESLRGNADLAYILSMEPCGHCLIINNVNFCRESGLRTRTGSNIDCEKLRRRFSSLHFMVEVKGDLTAKKMVLALLELARQDHGALDCCVVVILSHGCQASHLQFPGAVYGTDGCPVSVEKIVNIFNGTSCPSLGGKPKLFFIQACGGEQKDHGFEVASTSPEDESPGSNPEPDATPFQEGLRTFDQLDAISSLPTPSDIFVSYSTFPGFVSWRDPKSGSWYVETLDDIFEQWAHSEDLQSLLLRVANAVSVKGIYKQMPQCFNFLRKKLFFKTSASRA	dead		
G402I (protein) GFGDVGALESLRGNADLAYILSMEPCGHCLIINNVNFCRESGLRTRTGSNIDCEKLRRRFSSLHFMVEVKGDLTAKKMVLALLELARQDHGALDCCVVVILSHGCQASHLQFPGAVYGTDGCPVSVEKIVNIFNGTSCPSLGGKPKLFFIQACGGEQKDHGFEVASTSPEDESPGSNPEPDATPFQEGLRTFDQLDAISSLPTPSDIFVSYSTFPGFVSWRDPKSGSWYVETLDDIFEQWAHSEDLQSLLLRVANAVSVKGIYKQMPICFNFLRKKLFFKTSASRA	dead		
C403P (protein) GFGDVGALESLRGNADLAYILSMEPCGHCLIINNVNFCRESGLRTRTGSNIDCEKLRRRFSSLHFMVEVKGDLTAKKMVLALLELARQDHGALDCCVVVILSHGCQASHLQFPGAVYGTDGCPVSVEKIVNIFNGTSCPSLGGKPKLFFIQACGGEQKDHGFEVASTSPEDESPGSNPEPDATPFQEGLRTFDQLDAISSLPTPSDIFVSYSTFPGFVSWRDPKSGSWYVETLDDIFEQWAHSEDLQSLLLRVANAVSVKGIYKQMPGPFNFLRKKLFFKTSASRA	dead		
S196D (protein) GFGDVGALESLRGNADLAYILSMEPCGHCLIINNVNFCRESGLRTRTGSNIDCEKLRRRFSDLHFMVEVKGDLTAKKMVLALLELARQDHGALDCCVVVILSHGCQASHLQFPGAVYGTDGCPVSVEKIVNIFNGTSCPSLGGKPKLFFIQACGGEQKDHGFEVASTSPEDESPGSNPEPDATPFQEGLRTFDQLDAISSLPTPSDIFVSYSTFPGFVSWRDPKSGSWYVETLDDIFEQWAHSEDLQSLLLRVANAVSVKGIYKQMPGCFNFLRKKLFFKTSASRA		Decreased	
S144A (protein) GFGDVGALEALRGNADLAYILSMEPCGHCLIINNVNFCRESGLRTRTGSNIDCEKLRRRFSSLHFMVEVKGDLTAKKMVLALLELARQDHGALDCCVVVILSHGCQASHLQFPGAVYGTDGCPVSVEKIVNIFNGTSCPSLGGKPKLFFIQACGGEQKDHGFEVASTSPEDESPGSNPEPDATPFQEGLRTFDQLDAISSLPTPSDIFVSYSTFPGFVSWRDPKSGSWYVETLDDIFEQWAHSEDLQSLLLRVANAVSVKGIYKQMPGCFNFLRKKLFFKTSASRA		Decreased	
402GCFNF^406CIVSM (Casp-3) (protein, UniProt P55211 1-416, looked up, variant G402C C403I F404V N405S F406M) MDEADRRLLRRCRLRLVEELQVDQLWDALLSRELFRPHMIEDIQRAGSGSRRDQARQLIIDLETRGSQALPLFISCLEDTGQDMLASFLRTNRQAAKLSKPTLENLTPVVLRPEIRKPEVLRPETPRPVDIGSGGFGDVGALESLRGNADLAYILSMEPCGHCLIINNVNFCRESGLRTRTGSNIDCEKLRRRFSSLHFMVEVKGDLTAKKMVLALLELAQQDHGALDCCVVVILSHGCQASHLQFPGAVYGTDGCPVSVEKIVNIFNGTSCPSLGGKPKLFFIQACGGEQKDHGFEVASTSPEDESPGSNPEPDATPFQEGLRTFDQLDAISSLPTPSDIFVSYSTFPGFVSWRDPKSGSWYVETLDDIFEQWAHSEDLQSLLLRVANAVSVKGIYKQMPCIVSMLRKKLFFKTS	dead		
402GCFNF^406QPTFT (Casp-8) (protein, UniProt P55211 1-416, looked up, variant G402Q C403P F404T N405F F406T) MDEADRRLLRRCRLRLVEELQVDQLWDALLSRELFRPHMIEDIQRAGSGSRRDQARQLIIDLETRGSQALPLFISCLEDTGQDMLASFLRTNRQAAKLSKPTLENLTPVVLRPEIRKPEVLRPETPRPVDIGSGGFGDVGALESLRGNADLAYILSMEPCGHCLIINNVNFCRESGLRTRTGSNIDCEKLRRRFSSLHFMVEVKGDLTAKKMVLALLELAQQDHGALDCCVVVILSHGCQASHLQFPGAVYGTDGCPVSVEKIVNIFNGTSCPSLGGKPKLFFIQACGGEQKDHGFEVASTSPEDESPGSNPEPDATPFQEGLRTFDQLDAISSLPTPSDIFVSYSTFPGFVSWRDPKSGSWYVETLDDIFEQWAHSEDLQSLLLRVANAVSVKGIYKQMPQPTFTLRKKLFFKTS	dead		
